This note sets out measurements from doi:10.1101/2024.09.16.613172.

What all share (assay): ITC
For assay [1], the target named is MHETase-CelF (not stated | Clostridium cellulolyticum) (UniProt P37698).
In assay [2] the target is FAST-PETase-CelK (not stated | Clostridium thermocellum).
In another assay the target is SH3L-optiMHETase.
For assay [3], the target named is ICCG-ScaA (not stated | Ruminococcus flavefaciens).

CipA-CBM-CipC (Scaf.2): the Kd in assay [1] was found to be 1000 nM; in assay [2], 19.1 nM.
The substance CipA-CBM-SH3D (Scaf.3) came in with a Kd in the assay with SH3L-optiMHETase of 12.6 nM.
In the case of CipA-CBM-SH3D-ScaB (Scaf.4), the dissociation constant (Kd) in assay [2] is 6.44 nM; with SH3L-optiMHETase it was 3.53 nM; in assay [3] it was 5.25 nM.
